Results taken from patent US5847088A, “Antibodies specific for platelet-activating factor acetylhydrolase” (ICOS Corporation, priority 1995, dated 1998).
Residue numbers refer to the chain shown, from its start. Names and notes keep the numbering of the source.

B1: V279F: PAF-AH with phenylalanine for valine at position 279, mutation of PAF-AH deficient patients (protein)
chain: MVPPKLHVLFCLCGCLAVVYPFDWQYINPVAHMKSSAWVNKIQVLMAAASFGQTKIPRGNGPYSVGCTDLMFDHTNKGTFLRLYYPSQDNDRLDTLWIPNKEYFWGLSKFLGTHWLMGNILRLLFGSMTTPANWNSPLRPGEKYPLVVFSHGLGAFRTLYSAIGIDLASHGFIVAAVEHRDRSASATYYFKDQSAAEIGDKSWLYLRTLKQEEETHIRNEQVRQRAKECSQALSLILDIDHGKPVKNALDLKFDMEQLKDSIDREKIAVIGHSFGGATFIQTLSEDQRFRCGIALDAWMFPLGDEVYSRIPQPLFFINSEYFQYPANIIKMKKCYSPDKERKMITIRGSVHQNFADFTFATGKIIGHMLKLKGDIDSNVAIDLSNKASLAFLQKHLGLHKDFDQWDCLIEGDDENLIPGTNINTTNQHIMLQNSSGIEKYN
B2: Wild type: wild type human PAF-AH expressed in E. coli, control of mutation series (protein, UniProt Q13093 22-441, looked up)
Platelet-activating factor …: FDWQYINPVAHMKSSAWVNKIQVLMAAASFGQTKIPRGNGPYSVGCTDLMFDHTNKGTFLRLYYPSQDNDRLDTLWIPNKEYFWGLSKFLGTHWLMGNILRLLFGSMTTPANWNSPLRPGEKYPLVVFSHGLGAFRTLYSAIGIDLASHGFIVAAVEHRDRSASATYYFKDQSAAEIGDKSWLYLRTLKQEEETHIRNEQVRQRAKECSQALSLILDIDHGKPVKNALDLKFDMEQLKDSIDREKIAVIGHSFGGATVIQTLSEDQRFRCGIALDAWMFPLGDEVYSRIPQPLFFINSEYFQYPANIIKMKKCYSPDKERKMITIRGSVHQNFADFTFATGKIIGHMLKLKGDIDSNVAIDLSNKASLAFLQKHLGLHKDFDQWDCLIEGDDENLIPGTNINTTNQHIMLQNSSGIEKYN
B3: S108A: PAF-AH analog with single amino acid substitution, expressed in E. coli (protein)
chain: B1 chain with S108A, F279V
B4: D286A: PAF-AH analog with single amino acid substitution (protein)
chain: B1 chain with F279V, D286A
B5: C334S: PAF-AH analog, cysteine mutated to serine (protein)
chain: B1 chain with F279V, C334S
B6: C407S: PAF-AH analog, cysteine mutated to serine (protein)
chain: B1 chain with F279V, C407S
B7: C229S: PAF-AH analog, Cys229 mutated to serine (protein)
chain: B1 chain with C229S, F279V
B8: D296A: PAF-AH analog, Asp296 changed to alanine (protein)
chain: B1 chain with F279V, D296A
B9: C67S: PAF-AH analog, cysteine mutated to serine (protein)
chain: B1 chain with C67S, F279V
B10: S273A: PAF-AH analog, Ser273 changed to alanine (protein)
chain: B1 chain with S273A, F279V
B11: C291S: PAF-AH analog, Cys291 mutated to serine (protein)
chain: B1 chain with F279V, C291S
B12: H351A: PAF-AH analog, His351 changed to alanine (protein)
chain: B1 chain with F279V, H351A
B13: D286N: PAF-AH analog with single amino acid substitution (protein)
chain: B1 chain with F279V, D286N
B14: D304A: PAF-AH analog with single amino acid substitution (protein)
chain: B1 chain with F279V, D304A
B15: D338A: PAF-AH analog with single amino acid substitution (protein)
chain: B1 chain with F279V, D338A

experiment: PAF-AH activity of PAF-AH products expressed in E. coli (hydrolysis of 3H-acetate from [acetyl-3H] PAF); assay type: biochemical; details: E. coli; control construct lacking the mutation fully active

| Molecule | PAF-AH activity of mutant expression construct |
| --- | --- |
| B1 | no PAF-AH activity |

same assay, conditions: amino acid substitution products expressed in E. coli

| Molecule | PAF-AH activity |
| --- | --- |
| B2 | ++++ (wild type PAF-AH activity of about 40-60 U/ml/OD600) |
| B3 | ++++ (wild type PAF-AH activity of about 40-60 U/ml/OD600) |
| B4 | - (<1 U/ml/OD600 activity) |
| B5 | ++++ (wild type PAF-AH activity of about 40-60 U/ml/OD600) |
| B6 | +++ (about 20-40 U/ml/OD600 activity) |
| B7 | + (1-10 U/ml/OD600 activity) |
| B8 | - (<1 U/ml/OD600 activity) |
| B9 | +++ (about 20-40 U/ml/OD600 activity) |
| B10 | - (<1 U/ml/OD600 activity) |
| B11 | + (1-10 U/ml/OD600 activity) |
| B12 | - (<1 U/ml/OD600 activity) |
| B13 | ++ (about 10-20 U/ml/OD600 activity) |
| B14 | ++++ (wild type PAF-AH activity of about 40-60 U/ml/OD600) |
| B15 | ++++ (wild type PAF-AH activity of about 40-60 U/ml/OD600) |
